Reference: patent publication US20230349919A1 (Regeneron, published 2023)
Substitutions are numbered along the chain they refer to. Values belong to the binder of their own block, whether it stands above or below them.

Tests used:
[1] = molecular target: T1, human IL-4 Receptor α (hIL-4Rα) ectodomain (Example 17) (human, UniProt P24394 26-232, AlexaFluor 647 label, or biotin bound to PE-labeled streptavidin tetramer); experiment: Biacore at +25°C
T1 construct: extracellular domain; Used as AF647-labelled monomer (5 nM) and as biotinylated ectodomain on SA-PE tetramer; also called hIL-4Rα-AlexaFluor647 (monomeric); hIL-4Rα-biotin-StAv-PE (tetrameric)

[2] = molecular target: T1, human IL-4 Receptor α (hIL-4Rα) …; experiment: method not stated
[3] = molecular target: T2, Der p 2 (house dust mite, UniProt P49278 18-146); experiment: antigen specificity score against Ole e 1 from barcode counts of single IgE PCs [cont.]
T2 construct: Also used oligonucleotide-barcoded for cell staining
T2 sequence (looked up): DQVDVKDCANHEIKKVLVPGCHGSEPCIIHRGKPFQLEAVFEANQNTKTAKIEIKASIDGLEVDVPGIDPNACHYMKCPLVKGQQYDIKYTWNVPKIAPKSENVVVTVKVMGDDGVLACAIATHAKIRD
Experimental: Antigen specificity score (AgSS) for IgG were calculated by subtracting the quantile of hIL-6Rα barcoded UMI counts multiplied by a penalty factor (x) from the quantile of hIL-4Rα barcoded UMI counts, AgSS=Q_hIL-4Rα-Q_hIL-6Rα^x. AgSS for IgE were calculated with a similar formula for mouse and human single cell data. For IgE scores the target antigens were either Der p1, Der p2 or Der f1 and the control was always Ole e1.
Following processing of the three single-cell libraries, the gene expression and V(D)J region sequencing data were used to subset PCs with a valid IgE constant region and detectable expression of IgE and CD79a but lacking the expression of Ms4a1 and CD19 typically found in non-PC B cells. IgE-expressing PCs were then assessed for differential expression against additional IgA, IgG, and IgM plasma cell isotypes to further characterize the unique transcriptional signature of IgE-secreting PCs. IgE-secreting PCs were then assessed for antigen specificity by comparing the normalized levels of the target antigens, namely, Der p 1, Der p 2, or Der f 1, against the normalized level of the control antigen Ole e 1. This was performed by calculating an empirical score for each target antigen and subtracting the […] with a penalty factor. The formula used to do is set forth below: […]

[4] = molecular target: T2, Der p 2; experiment: barcoded antigen sequencing of single IgE PCs with trapped IgE
[5] = molecular target: T2, Der p 2; experiment: barcoded antigen sequencing of single IgE PCs with trapped IgE [cont.]
Source text: (§1) The barcoded antigen library was mapped by the CellRanger software to a custom short-read reference that contained the DNA tag sequences of the four barcoded antigens, namely, Der p 1, Der p 2, Der f 1 and Ole e 1. These tag sequences were quantified across all cells and were normalized by taking the centered log-ratio (CLR) per barcoded antigen across each sample capture. In addition, background antigen signal for each barcoded antigen was removed by DSB (Denoised and Scaled by Background). Both the CLR and the DSB normalized values were used to quantify the target antigen signals, namely, those for Der p 1, Der p 2 and Der f 1, against the control signal, namely, that for Ole e 1.

[6] = molecular target: T2, Der p 2; experiment: barcoded-antigen count on source cell
[7] = molecular target: T3, Ole e 1 (olive, UniProt P19963 1-145); experiment: barcoded-antigen count on source cell
T3 construct: Also used oligonucleotide-barcoded for cell staining; also called olive allergen; negative control allergen
T3 sequence (looked up): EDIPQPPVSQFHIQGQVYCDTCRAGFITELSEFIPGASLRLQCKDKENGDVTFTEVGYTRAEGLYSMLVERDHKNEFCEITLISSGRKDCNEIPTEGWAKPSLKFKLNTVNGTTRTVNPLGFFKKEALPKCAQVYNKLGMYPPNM

[8] = molecular target: T4, Der f 1 (house dust mite, UniProt P16311 99-321); experiment: barcoded-antigen count on source cell
T4 construct: Also used oligonucleotide-barcoded for cell staining
T4 sequence (looked up): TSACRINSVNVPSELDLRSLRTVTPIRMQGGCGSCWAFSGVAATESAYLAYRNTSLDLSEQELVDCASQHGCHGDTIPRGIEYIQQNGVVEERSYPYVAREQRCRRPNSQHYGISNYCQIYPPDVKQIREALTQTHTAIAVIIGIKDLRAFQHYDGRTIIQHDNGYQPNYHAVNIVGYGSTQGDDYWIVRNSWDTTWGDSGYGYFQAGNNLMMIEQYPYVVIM

[9] = molecular target: T2, Der p 2; experiment: barcode rank score against control Ole e 1
[10] = molecular target: T4, Der f 1; experiment: barcode rank score against control Ole e 1
[11] = molecular target: T2, Der p 2; experiment: centered log-ratio of barcode count
Source text: as §1

[12] = molecular target: T3, Ole e 1; experiment: centered log-ratio of barcode count
Source text: as §1

[13] = molecular target: T4, Der f 1; experiment: centered log-ratio of barcode count
Source text: as §1

[14] = molecular target: T2, Der p 2; experiment: ELISA, coated Der p2
Experimental: After selecting allergen-specific antibodies, relative binding to Der p 1, Der p 2, and Der f 1 were quantified by ELISA. […] Specifically, binding microtiter plates were coated with 100 μl of 2 μg/mL of natural Der p 1, Der p 2, Der f 1, and Ole e 1 in PBS overnight at 4′C. IgE antibodies were prepared at a concentration of 1 μg/mL and serially diluted three-fold in PBS with 0.5% w/v BSA. After washing with 0.05% v/v Tween® 20 in PBS and blocking in PBS with 0.5% w/v BSA, 100 μl of the diluted IgE antibodies were transferred to the plates and incubated for one hour at ambient temperature. Subsequently, 100 μL of anti-mouse IgE antibody conjugated to horse-radish peroxidase (HRP) diluted at 1:5000 was added. The plates were then incubated for one hour at ambient temperature, and washed in 0.05% v/v/Tween® 20 in PBS. Subsequently, the HRP substrate 3,3′,5,5′-tetramethylbenzidine (TMB) was added. The reaction was stopped (with 100 μL of sulfuric acid 2.0 N) and optical density values determined using a plate reader at 450 nm.

t1/2 pH7.4 [1]: > 116 min
Kd [2]: 1.68 nM
B1: ab_1 (antibody, V domains shown)
VH: EVQLVESGGGLEQPGGSLRLSCAGSGFTFSDYAMTWVRQAPGKGLEWVSSISGSGGNTYYADSVKGRFTISRDNSKNTLYLQMNSLRAEDTAVYYCAKDALTIAIRPYYYGLDVWGQGTTVTVSS
VL: DIVMTQSPLSLPVTPGEPASISCRSSQSLDYSYGYNYLDWYLQKSGQSPQLLIYLASNRASGVPDRFSGSGSGTDFTLKISRVEAEDVGFYYCMQSLSTPYTFGQGTKLEIK

t1/2 pH7.4 [1]: 21.7 min
Kd [2]: 3.26 nM
B2: ab_2 (antibody, V domains shown)
VH: B1 VH with S30R, G56S, K98R, A100R, I103A, I105V
VL: B1 VL with Y33S, S98Q

t1/2 pH7.4 [1]: 10.6 min
Kd [2]: 14.2 nM
B3: ab_3 (antibody, V domains shown)
VH: B1 VH with S30R, A100R, T102S, I103K, A104T
VL: B1 VL with D30L, Y33T, A56G

Continued, binder first:

B4: Candidate ID 16 (antibody, V domains shown)
VH: EVHLQQSGPDLVKPGASVMISCQASGYSFTAYYINWVKQSPEKSLEWIGEINPGSGGVIYNRKFEAKATLIVDKSSNTAFMLLTRLTSEDSAIYYCARKGFYQFDYWGQGTTLTVSS
VL: SVVMTQIPKFLVVSAGDRVTITCKASQSVNDGVFWYQQKTGQSPKLVIYHTSNRYTGVSDRFTGSGYGTEFTFTISAVQSEDLAIYFCQQDYTSPLTFGGGTRLEIK
notes: IgE PCs LN
Antigen Score [3]: 0.336
Raw Antigen Barcode Count [4]: 6
Normalized Barcode Count [5]: 0.58

B5: IgE mAb 1_2 (antibody, V domains shown)
VH: QIQLVQSGPELKKPGETVKISCKASGYTFTTYGMSWVKQAPGKGLKWMGWINTYSGVPTYADDFKGRFVFSLETSASTAYLQINNLKNEDTATYFCARAYYYGSSYLIWYFDVWGTGTTVTVSS
VL: NIVLTQSPASLAVSLGQRATISCRASESVDSYGNSFMHWYQQKPGQPPKLLIYLASNLESGVPARFSGSGSRTDFTLTIDPVEADDAATYYCQQNNEDPYTFGGGTKLEIK
notes: IgE (IGHE, IGKC) from HDM-exposed mouse, BoneMarrow
Derp2_ab_raw [6]: 60 counts
Olee1_ab_raw [7]: 0 counts
Derf1_ab_raw [8]: 37 counts
Derp2_ab_rank [9]: 1
Derf1_ab_rank [10]: 0.982
Derp2_ab_clr [11]: 1.65
Olee1_ab_clr [12]: -1.12
Derf1_ab_clr [13]: 1.32

B6: IgE mAb 21_2 (antibody, V domains shown)
VH: QVQLQQSGPELVKPGASVKISCKAPGNAFSYSWMNWVKQRPGKGLEWVGRIYPGDGDTNYNGKFMGKATLTADKSSNTAYIQLSSLTSEDSAVYFCARSGGGTLYWYFDVWGTGTTVTVSS
VL: DIVMTQSPSSLALSVGQKVTMNCRSSQSLLNSFNQKNYLAWFQQKPGQSPRLLIYFASTRESGVPDRFIGSGSGTDFTLTISSVQAEDLADYFCQQHYNTPLTFGAGTTLELK
notes: IgE (IGHE, IGKC) from HDM-exposed mouse, LymphNode
EC50 (read off the curve) [14]: ~0.2 nM
Derp2_ab_raw [6]: 215 counts
Olee1_ab_raw [7]: 4 counts
Derf1_ab_raw [8]: 1 counts
Derp2_ab_rank [9]: 0.412
Derf1_ab_rank [10]: -0.386
Derp2_ab_clr [11]: 4.01
Olee1_ab_clr [12]: 0.826
Derf1_ab_clr [13]: -0.795
